# From US20260070987A1
# B1: equine IgG1 Q311S (antibody, part only; not given: variable domains, not shown: another chain or arm of the molecule)
# constant: ASTTAPKVFALAPGCGTTSDSTVALGCLVSGYFPEPVKVSWNSGSLTSGVHTFPSVLQSSGFYSLSSMVTVPASTWTSETYICNVVHAASNFKVDKRIEPIPDNHQKVCDMSKCPKCPAPELLGGPSVFIFPPNPKDTLMITRTPEVTCVVVDVSQENPDVKFNWYMDGVEVRTATTRPKEEQFNSTYRVVSVLRIQHSDWLSGKEFKCKVNNQALPQPIERTITKTKGRSQEPQVYVLAPHPDELSKSKVSVTCLVKDFYPPEINIEWQSNGQPELETKYSTTQAQQDSDGSYFLYSKLSVDRNRWQQGTTFTCGVMHEALHNHYTQKNVSKNPGK
# B2: equine IgG1 D312M (antibody, part only; not given: Variable domains, not shown: another chain or arm of the molecule)
# constant: ASTTAPKVFALAPGCGTTSDSTVALGCLVSGYFPEPVKVSWNSGSLTSGVHTFPSVLQSSGFYSLSSMVTVPASTWTSETYICNVVHAASNFKVDKRIEPIPDNHQKVCDMSKCPKCPAPELLGGPSVFIFPPNPKDTLMITRTPEVTCVVVDVSQENPDVKFNWYMDGVEVRTATTRPKEEQFNSTYRVVSVLRIQHQMWLSGKEFKCKVNNQALPQPIERTITKTKGRSQEPQVYVLAPHPDELSKSKVSVTCLVKDFYPPEINIEWQSNGQPELETKYSTTQAQQDSDGSYFLYSKLSVDRNRWQQGTTFTCGVMHEALHNHYTQKNVSKNPGK
# B3: equine IgG1 D312A (antibody, part only; not given: variable domains, not shown: another chain or arm of the molecule)
# constant: ASTTAPKVFALAPGCGTTSDSTVALGCLVSGYFPEPVKVSWNSGSLTSGVHTFPSVLQSSGFYSLSSMVTVPASTWTSETYICNVVHAASNFKVDKRIEPIPDNHQKVCDMSKCPKCPAPELLGGPSVFIFPPNPKDTLMITRTPEVTCVVVDVSQENPDVKFNWYMDGVEVRTATTRPKEEQFNSTYRVVSVLRIQHQAWLSGKEFKCKVNNQALPQPIERTITKTKGRSQEPQVYVLAPHPDELSKSKVSVTCLVKDFYPPEINIEWQSNGQPELETKYSTTQAQQDSDGSYFLYSKLSVDRNRWQQGTTFTCGVMHEALHNHYTQKNVSKNPGK
# B4: equine IgG1 D312C (antibody, part only; not given: variable domains, not shown: another chain or arm of the molecule)
# constant: ASTTAPKVFALAPGCGTTSDSTVALGCLVSGYFPEPVKVSWNSGSLTSGVHTFPSVLQSSGFYSLSSMVTVPASTWTSETYICNVVHAASNFKVDKRIEPIPDNHQKVCDMSKCPKCPAPELLGGPSVFIFPPNPKDTLMITRTPEVTCVVVDVSQENPDVKFNWYMDGVEVRTATTRPKEEQFNSTYRVVSVLRIQHQCWLSGKEFKCKVNNQALPQPIERTITKTKGRSQEPQVYVLAPHPDELSKSKVSVTCLVKDFYPPEINIEWQSNGQPELETKYSTTQAQQDSDGSYFLYSKLSVDRNRWQQGTTFTCGVMHEALHNHYTQKNVSKNPGK
# B5: equine IgG1 M252L (antibody, part only; not given: variable domains, not shown: another chain or arm of the molecule)
# constant: ASTTAPKVFALAPGCGTTSDSTVALGCLVSGYFPEPVKVSWNSGSLTSGVHTFPSVLQSSGFYSLSSMVTVPASTWTSETYICNVVHAASNFKVDKRIEPIPDNHQKVCDMSKCPKCPAPELLGGPSVFIFPPNPKDTLLITRTPEVTCVVVDVSQENPDVKFNWYMDGVEVRTATTRPKEEQFNSTYRVVSVLRIQHQDWLSGKEFKCKVNNQALPQPIERTITKTKGRSQEPQVYVLAPHPDELSKSKVSVTCLVKDFYPPEINIEWQSNGQPELETKYSTTQAQQDSDGSYFLYSKLSVDRNRWQQGTTFTCGVMHEALHNHYTQKNVSKNPGK
# B6: equine IgG1 D312K (antibody, part only; not given: variable domains, not shown: another chain or arm of the molecule)
# constant: ASTTAPKVFALAPGCGTTSDSTVALGCLVSGYFPEPVKVSWNSGSLTSGVHTFPSVLQSSGFYSLSSMVTVPASTWTSETYICNVVHAASNFKVDKRIEPIPDNHQKVCDMSKCPKCPAPELLGGPSVFIFPPNPKDTLMITRTPEVTCVVVDVSQENPDVKFNWYMDGVEVRTATTRPKEEQFNSTYRVVSVLRIQHQKWLSGKEFKCKVNNQALPQPIERTITKTKGRSQEPQVYVLAPHPDELSKSKVSVTCLVKDFYPPEINIEWQSNGQPELETKYSTTQAQQDSDGSYFLYSKLSVDRNRWQQGTTFTCGVMHEALHNHYTQKNVSKNPGK
# B7: equine IgG1 Q311Y (antibody, part only; not given: Variable domains, not shown: another chain or arm of the molecule)
# constant: ASTTAPKVFALAPGCGTTSDSTVALGCLVSGYFPEPVKVSWNSGSLTSGVHTFPSVLQSSGFYSLSSMVTVPASTWTSETYICNVVHAASNFKVDKRIEPIPDNHQKVCDMSKCPKCPAPELLGGPSVFIFPPNPKDTLMITRTPEVTCVVVDVSQENPDVKFNWYMDGVEVRTATTRPKEEQFNSTYRVVSVLRIQHYDWLSGKEFKCKVNNQALPQPIERTITKTKGRSQEPQVYVLAPHPDELSKSKVSVTCLVKDFYPPEINIEWQSNGQPELETKYSTTQAQQDSDGSYFLYSKLSVDRNRWQQGTTFTCGVMHEALHNHYTQKNVSKNPGK
# B8: equine IgG1 Q311V (antibody, part only; not given: variable domains, not shown: another chain or arm of the molecule)
# constant: ASTTAPKVFALAPGCGTTSDSTVALGCLVSGYFPEPVKVSWNSGSLTSGVHTFPSVLQSSGFYSLSSMVTVPASTWTSETYICNVVHAASNFKVDKRIEPIPDNHQKVCDMSKCPKCPAPELLGGPSVFIFPPNPKDTLMITRTPEVTCVVVDVSQENPDVKFNWYMDGVEVRTATTRPKEEQFNSTYRVVSVLRIQHVDWLSGKEFKCKVNNQALPQPIERTITKTKGRSQEPQVYVLAPHPDELSKSKVSVTCLVKDFYPPEINIEWQSNGQPELETKYSTTQAQQDSDGSYFLYSKLSVDRNRWQQGTTFTCGVMHEALHNHYTQKNVSKNPGK
# B9: equine IgG1 D312F (antibody, part only; not given: Variable domains, not shown: another chain or arm of the molecule)
# constant: ASTTAPKVFALAPGCGTTSDSTVALGCLVSGYFPEPVKVSWNSGSLTSGVHTFPSVLQSSGFYSLSSMVTVPASTWTSETYICNVVHAASNFKVDKRIEPIPDNHQKVCDMSKCPKCPAPELLGGPSVFIFPPNPKDTLMITRTPEVTCVVVDVSQENPDVKFNWYMDGVEVRTATTRPKEEQFNSTYRVVSVLRIQHQFWLSGKEFKCKVNNQALPQPIERTITKTKGRSQEPQVYVLAPHPDELSKSKVSVTCLVKDFYPPEINIEWQSNGQPELETKYSTTQAQQDSDGSYFLYSKLSVDRNRWQQGTTFTCGVMHEALHNHYTQKNVSKNPGK
# B10: equine IgG1 D312G (antibody, part only; not given: variable domains, not shown: another chain or arm of the molecule)
# constant: ASTTAPKVFALAPGCGTTSDSTVALGCLVSGYFPEPVKVSWNSGSLTSGVHTFPSVLQSSGFYSLSSMVTVPASTWTSETYICNVVHAASNFKVDKRIEPIPDNHQKVCDMSKCPKCPAPELLGGPSVFIFPPNPKDTLMITRTPEVTCVVVDVSQENPDVKFNWYMDGVEVRTATTRPKEEQFNSTYRVVSVLRIQHQGWLSGKEFKCKVNNQALPQPIERTITKTKGRSQEPQVYVLAPHPDELSKSKVSVTCLVKDFYPPEINIEWQSNGQPELETKYSTTQAQQDSDGSYFLYSKLSVDRNRWQQGTTFTCGVMHEALHNHYTQKNVSKNPGK
# B11: equine IgG1 Q311W (antibody, part only; not given: variable domains, not shown: another chain or arm of the molecule)
# constant: ASTTAPKVFALAPGCGTTSDSTVALGCLVSGYFPEPVKVSWNSGSLTSGVHTFPSVLQSSGFYSLSSMVTVPASTWTSETYICNVVHAASNFKVDKRIEPIPDNHQKVCDMSKCPKCPAPELLGGPSVFIFPPNPKDTLMITRTPEVTCVVVDVSQENPDVKFNWYMDGVEVRTATTRPKEEQFNSTYRVVSVLRIQHWDWLSGKEFKCKVNNQALPQPIERTITKTKGRSQEPQVYVLAPHPDELSKSKVSVTCLVKDFYPPEINIEWQSNGQPELETKYSTTQAQQDSDGSYFLYSKLSVDRNRWQQGTTFTCGVMHEALHNHYTQKNVSKNPGK
# B12: equine IgG1 Q311T (antibody, part only; not given: variable domains, not shown: another chain or arm of the molecule)
# constant: ASTTAPKVFALAPGCGTTSDSTVALGCLVSGYFPEPVKVSWNSGSLTSGVHTFPSVLQSSGFYSLSSMVTVPASTWTSETYICNVVHAASNFKVDKRIEPIPDNHQKVCDMSKCPKCPAPELLGGPSVFIFPPNPKDTLMITRTPEVTCVVVDVSQENPDVKFNWYMDGVEVRTATTRPKEEQFNSTYRVVSVLRIQHTDWLSGKEFKCKVNNQALPQPIERTITKTKGRSQEPQVYVLAPHPDELSKSKVSVTCLVKDFYPPEINIEWQSNGQPELETKYSTTQAQQDSDGSYFLYSKLSVDRNRWQQGTTFTCGVMHEALHNHYTQKNVSKNPGK
# B13: equine IgG1 D312E (antibody, part only; not given: variable domains, not shown: another chain or arm of the molecule)
# constant: ASTTAPKVFALAPGCGTTSDSTVALGCLVSGYFPEPVKVSWNSGSLTSGVHTFPSVLQSSGFYSLSSMVTVPASTWTSETYICNVVHAASNFKVDKRIEPIPDNHQKVCDMSKCPKCPAPELLGGPSVFIFPPNPKDTLMITRTPEVTCVVVDVSQENPDVKFNWYMDGVEVRTATTRPKEEQFNSTYRVVSVLRIQHQEWLSGKEFKCKVNNQALPQPIERTITKTKGRSQEPQVYVLAPHPDELSKSKVSVTCLVKDFYPPEINIEWQSNGQPELETKYSTTQAQQDSDGSYFLYSKLSVDRNRWQQGTTFTCGVMHEALHNHYTQKNVSKNPGK
# B14: equine IgG1 M252K (antibody, part only; not given: variable domains, not shown: another chain or arm of the molecule)
# constant: ASTTAPKVFALAPGCGTTSDSTVALGCLVSGYFPEPVKVSWNSGSLTSGVHTFPSVLQSSGFYSLSSMVTVPASTWTSETYICNVVHAASNFKVDKRIEPIPDNHQKVCDMSKCPKCPAPELLGGPSVFIFPPNPKDTLKITRTPEVTCVVVDVSQENPDVKFNWYMDGVEVRTATTRPKEEQFNSTYRVVSVLRIQHQDWLSGKEFKCKVNNQALPQPIERTITKTKGRSQEPQVYVLAPHPDELSKSKVSVTCLVKDFYPPEINIEWQSNGQPELETKYSTTQAQQDSDGSYFLYSKLSVDRNRWQQGTTFTCGVMHEALHNHYTQKNVSKNPGK
# B15: equine IgG1 D312H (antibody, part only; not given: variable domains, not shown: another chain or arm of the molecule)
# constant: ASTTAPKVFALAPGCGTTSDSTVALGCLVSGYFPEPVKVSWNSGSLTSGVHTFPSVLQSSGFYSLSSMVTVPASTWTSETYICNVVHAASNFKVDKRIEPIPDNHQKVCDMSKCPKCPAPELLGGPSVFIFPPNPKDTLMITRTPEVTCVVVDVSQENPDVKFNWYMDGVEVRTATTRPKEEQFNSTYRVVSVLRIQHQHWLSGKEFKCKVNNQALPQPIERTITKTKGRSQEPQVYVLAPHPDELSKSKVSVTCLVKDFYPPEINIEWQSNGQPELETKYSTTQAQQDSDGSYFLYSKLSVDRNRWQQGTTFTCGVMHEALHNHYTQKNVSKNPGK
# B16: equine IgG1 D312L (antibody, part only; not given: variable domains, not shown: another chain or arm of the molecule)
# constant: ASTTAPKVFALAPGCGTTSDSTVALGCLVSGYFPEPVKVSWNSGSLTSGVHTFPSVLQSSGFYSLSSMVTVPASTWTSETYICNVVHAASNFKVDKRIEPIPDNHQKVCDMSKCPKCPAPELLGGPSVFIFPPNPKDTLMITRTPEVTCVVVDVSQENPDVKFNWYMDGVEVRTATTRPKEEQFNSTYRVVSVLRIQHQLWLSGKEFKCKVNNQALPQPIERTITKTKGRSQEPQVYVLAPHPDELSKSKVSVTCLVKDFYPPEINIEWQSNGQPELETKYSTTQAQQDSDGSYFLYSKLSVDRNRWQQGTTFTCGVMHEALHNHYTQKNVSKNPGK
# Biological target: equine FcRn (large alpha subunit p51) / equine beta-2-microglobulin complex, biotinylated (equine) (UniProt P30441)
# Test: SPR (Biacore), pH 6
# Chain of UniProt P30441 (P30441 21-118, one chain of several): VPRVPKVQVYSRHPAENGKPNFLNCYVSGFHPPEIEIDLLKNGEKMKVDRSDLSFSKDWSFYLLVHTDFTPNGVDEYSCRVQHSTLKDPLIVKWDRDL
row,Binder,Kd
1,B1,24.4 nM
2,B2,23.4 nM
3,B3,9.86 nM
4,B4,21 nM
5,B5,101 nM
6,B6,15.8 nM
7,B7,21.2 nM
8,B8,16.3 nM
9,B9,17.8 nM
10,B10,16.2 nM
11,B11,21.2 nM
12,B12,17.4 nM
13,B13,25.2 nM
14,B14,36.7 nM
15,B15,17.1 nM
16,B16,24.6 nM
